In the supplement of paper PMC5998384:

Columns and labels:
HeLa Kyoto [1] = assay: solubility change mitosis vs G1/S (difference of NP-40 vs SDS log2 ratios) (log2 ratio difference); higher = more soluble in mitosis
HeLa Kyoto [2] = assay: melting temperature (median over replicates), in situ; higher = more thermally stable
HeLa Kyoto [3] = assay: solubility in G1/S (NP-40 vs SDS abundance) (log2 ratio); higher = more soluble; conditions: cell cycle stage: G1/S
HeLa Kyoto [4] = assay: thermal stability score vs G1/S (z-score of summed log2 fold changes over temperatures); higher = more thermally stable than in G1/S
[5] = cell cycle stage: early G1 (4.5 h after nocodazole release)
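Wherever melting temperature (median over replicates), in situ is given: HeLa Kyoto cells synchronized by double thymidine or nocodazole block, proteins quantified by TMT10plex mass spectrometry, three independent biological replicates.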
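Wherever solubility change mitosis vs G1/S (difference of NP-40 vs SDS log2 ratios) is given: synchronized HeLa Kyoto cells (double thymidine block for G1/S, nocodazole release for mitosis), protein amounts in NP-40 versus SDS lysates quantified by mass spectrometry, three biological replicates.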
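Wherever solubility in G1/S (NP-40 vs SDS abundance) is given: HeLa Kyoto cells arrested at G1/S by double thymidine block, proteins quantified by TMT10plex mass spectrometry in mild NP-40 versus SDS extracts, three biological replicates.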
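Wherever thermal stability score vs G1/S (z-score of summed log2 fold changes over temperatures) is given: synchronized HeLa Kyoto cells, proteins quantified by TMT10plex mass spectrometry, three biological replicates, mitosis taken 0.5 h after nocodazole release, G1/S directly after double thymidine block.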

| Sequence | solubility change mitosis (log2) (HeLa Kyoto [1]) | melting temperature (HeLa Kyoto [2]; cell cycle stage: G1/S) [°C] | melting temperature (HeLa Kyoto [2]; cell cycle stage: mitosis) [°C] | solubility in G1/S (log2) (HeLa Kyoto [3]) | thermal stability score (HeLa Kyoto [4]; [5]) | thermal stability score (HeLa Kyoto [4]; cell cycle stage: mitosis) |
| --- | --- | --- | --- | --- | --- | --- |
| MELQDPKMNGALPSDAVGYRQEREGFLPSRGPAPGSKPVQFMDFEGKTSFGMSVFNLSNAIMGSGILGLAYAMAHTGVIFFLALLLCIALLSSYSIHLLLTCAGIAGIRAYEQLGQRAFGPAGKVVVATVICLHNVGAMSSYLFIIKSELPLVIGTFLYMDPEGDWFLKGNLLIIIVSVLIILPLALMKHLGYLGYTSGLSLTCMLFFLVSVIYKKFQLGCAIGHNETAMESEALVGLPSQGLNSSCEAQMFTVDSQMSYTVPIMAFAFVCHPEVLPIYTELCRPSKRRMQAVANVSIGAMFCMYGLTATFGYLTFYSSVKAEMLHMYSQKDPLILCVRLAVLLAVTLTVPVVLFPIRRALQQLLFPGKAFSWPRHVAIALILLVLVNVLVICVPTIRDIFGVIGSTSAPSLIFILPSIFYLRIVPSEVEPFLSWPKIQALCFGVLGVLFMAVSLGFMFANWATGQSRMSGH [SLC38A5] | -0.0437 | 56.1 | 53.1 | -0.0136 | -1.85 | -3.24 |
| MELRVGNRYRLGRKIGSGSFGDIYLGTDIAAGEEVAIKLECVKTKHPQLHIESKIYKMMQGGVGIPTIRWCGAEGDYNVMVMELLGPSLEDLFNFCSRKFSLKTVLLLADQMISRIEYIHSKNFIHRDVKPDNFLMGLGKKGNLVYIIDFGLAKKYRDARTHQHIPYRENKNLTGTARYASINTHLGIEQSRRDDLESLGYVLMYFNLGSLPWQGLKAATKRQKYERISEKKMSTPIEVLCKGYPSEFATYLNFCRSLRFDDKPDYSYLRQLFRNLFHRQGFSYDYVFDWNMLKFGASRAADDAERERRDREERLRHSRNPATRGLPSTASGRLRGTQEVAPPTPLTPTSHTANTSPRPVSGMERERKVSMRLHRGAPVNISSSDLTGRQDTSRMSTSQIPGRVASSGLQSVVHR [CSNK1D] | -0.0573 | 50.1 | 50.9 | -0.067 | -0.73 | -0.371 |
| MELRVLLCWASLAAALEETLLNTKLETADLKWVTFPQVDGQWEELSGLDEEQHSVRTYEVCDVQRAPGQAHWLRTGWVPRRGAVHVYATLRFTMLECLSLPRAGRSCKETFTVFYYESDADTATALTPAWMENPYIKVDTVAAEHLTRKRPGAEATGKVNVKTLRLGPLSKAGFYLAFQDQGACMALLSLHLFYKKCAQLTVNLTRFPETVPRELVVPVAGSCVVDAVPAPGPSPSLYCREDGQWAEQPVTGCSCAPGFEAAEGNTKCRACAQGTFKPLSGEGSCQPCPANSHSNTIGSAVCQCRVGYFRARTDPRGAPCTTPPSAPRSVVSRLNGSSLHLEWSAPLESGGREDLTYALRCRECRPGGSCAPCGGDLTFDPGPRDLVEPWVVVRGLRPDFTYTFEVTALNGVSSLATGPVPFEPVNVTTDREVPPAVSDIRVTRSSPSSLSLAWAVPRAPSGAVLDYEVKYHEKGAEGPSSVRFLKTSENRAELRGLKRGASYLVQVRARSEAGYGPFGQEHHSQTQLDESEGWREQLALIAGTAVVGVVLVLVVIVVAVLCLRKQSNGREAEYSDKHGQYLIGHGTKVYIDPFTYEDPNEAVREFAKEIDVSYVKIEEVIGAGEFGEVCRGRLKAPGKKESCVAIKTLKGGYTERQRREFLSEASIMGQFEHPNIIRLEGVVTNSMPVMILTEFMENGALDSFLRLNDGQFTVIQLVGMLRGIASGMRYLAEMSYVHRDLAARNILVNSNLVCKVSDFGLSRFLEENSSDPTYTSSLGGKIPIRWTAPEAIAFRKFTSASDAWSYGIVMWEVMSFGERPYWDMSNQDVINAIEQDYRLPPPPDCPTSLHQLMLDCWQKDRNARPRFPQVVSALDKMIRNPASLKIVARENGGASHPLLDQRQPHYSAFGSVGEWLRAIKMGRYEESFAAAGFGSFELVSQISAEDLLRIGVTLAGHQKKILASVQHMKSQAKPGTPGGTGGPAPQY [EPHB4] | -0.108 | 49.4 | 48.9 | 0.0967 | 1.38 | -0.755 |
| MELSDANLQTLTEYLKKTLDPDPAIRRPAEKFLESVEGNQNYPLLLLTLLEKSQDNVIKVCASVTFKNYIKRNWRIVEDEPNKICEADRVAIKANIVHLMLSSPEQIQKQLSDAISIIGREDFPQKWPDLLTEMVNRFQSGDFHVINGVLRTAHSLFKRYRHEFKSNELWTEIKLVLDAFALPLTNLFKATIELCSTHANDASALRILFSSLILISKLFYSLNFQDLPEFFEDNMETWMNNFHTLLTLDNKLLQTDDEEEAGLLELLKSQICDNAALYAQKYDEEFQRYLPRFVTAIWNLLVTTGQEVKYDLLVSNAIQFLASVCERPHYKNLFEDQNTLTSICEKVIVPNMEFRAADEEAFEDNSEEYIRRDLEGSDIDTRRRAACDLVRGLCKFFEGPVTGIFSGYVNSMLQEYAKNPSVNWKHKDAAIYLVTSLASKAQTQKHGITQANELVNLTEFFVNHILPDLKSANVNEFPVLKADGIKYIMIFRNQVPKEHLLVSIPLLINHLQAESIVVHTYAAHALERLFTMRGPNNATLFTAAEIAPFVEILLTNLFKALTLPGSSENEYIMKAIMRSFSLLQEAIIPYIPTLITQLTQKLLAVSKNPSKPHFNHYMFEAICLSIRITCKANPAAVVNFEEALFLVFTEILQNDVQEFIPYVFQVMSLLLETHKNDIPSSYMALFPHLLQPVLWERTGNIPALVRLLQAFLERGSNTIASAAADKIPGLLGVFQKLIASKANDHQGFYLLNSIIEHMPPESVDQYRKQIFILLFQRLQNSKTTKFIKSFLVFINLYCIKYGALALQEIFDGIQPKMFGMVLEKIIIPEIQKVSGNVEKKICAVGITKLLTECPPMMDTEYTKLWTPLLQSLIGLFELPEDDTIPDEEHFIDIEDTPGYQTAFSQLAFAGKKEHDPVGQMVNNPKIHLAQSLHKLSTACPGRVPSMVSTSLNAEALQYLQGYLQAASVTLL [CSE1L] | -0.225 | 50.4 | 49.5 | -0.0863 | 1.44 | 2.55 |
